Assay results: patent US20230021388A1 (VELOSBIO, published 2023)
Substitutions are numbered along the chain they refer to.

B1: Ab1 Fab variant H1 A30P (Fab, V domains shown)
VH: QVQLQESGPGLVKPSQTLSLTCTVSGYPFTAYNIHWVRQAPGQGLEWMGSFDPYDGGSSYNQKFKDRLTISKDTSKNQVVLTMTNMDPVDTATYYCARGWYYFDYWGHGTLVTVSS
VL: DIVMTQTPLSLPVTPGEPASISCRASKSISKYLAWYQQKPGQAPRLLIYSGSTLQSGIPPRFSGSGYGTDFTLTINNIESEDAAYYFCQQHDESPYTFGEGTKVEIK
notes: Fab
B2: Ab1 Fab variant L1 S30F (Fab, V domains shown)
VH: B1 VH with P28A
VL: B1 VL with S28F
notes: Fab
B3: Ab1 Fab variant H1 A33S (Fab, V domains shown)
VH: B1 VH with P28A, A31S
VL: B1 VL
notes: Fab
B4: Ab1 Fab variant H1 Y39W (Fab, V domains shown)
VH: B1 VH with P28A, Y32W
VL: B1 VL
notes: Fab
B5: Ab1 Fab variant H2 Y70I (Fab, V domains shown)
VH: B1 VH with P28A, Y60I
VL: B1 VL
notes: Fab
B6: Ab1 Fab variant H1 F31V (Fab, V domains shown)
VH: B1 VH with P28A, F29V
VL: B1 VL
notes: Fab
B7: Ab1 Fab variant H2 N71G (Fab, V domains shown)
VH: B1 VH with P28A, N61G
VL: B1 VL
notes: Fab
B8: Ab1 Fab variant H2 G67Q (Fab, V domains shown)
VH: B1 VH with P28A, G57Q
VL: B1 VL
notes: Fab
B9: Ab1 Fab variant H2 G67R (Fab, V domains shown)
VH: B1 VH with P28A, G57R
VL: B1 VL
notes: Fab
B10: Ab1 Fab variant H2 S68A (Fab, V domains shown)
VH: B1 VH with P28A, S58A
VL: B1 VL
notes: Fab
B11: Ab1 Fab variant H1 F31I (Fab, V domains shown)
VH: B1 VH with P28A, F29I
VL: B1 VL
notes: Fab
B12: Ab1 Fab variant H2 D76V (Fab, V domains shown)
VH: B1 VH with P28A, D66V
VL: B1 VL
notes: Fab
B13: Ab1 Fab variant H2 G66D (Fab, V domains shown)
VH: B1 VH with P28A, G56D
VL: B1 VL
notes: Fab
B14: Ab1 Fab variant H2 D65E (Fab, V domains shown)
VH: B1 VH with P28A, D55E
VL: B1 VL
notes: Fab
B15: Ab1 Fab variant L1 I31V (Fab, V domains shown)
VH: B1 VH with P28A
VL: B1 VL with I29V
notes: Fab
B16: Ab1 Fab variant H2 N71H (Fab, V domains shown)
VH: B1 VH with P28A, N61H
VL: B1 VL
notes: Fab
B17: Ab1 Fab variant H1 N40P (Fab, V domains shown)
VH: B1 VH with P28A, N33P
VL: B1 VL
notes: Fab
B18: Ab1 Fab variant H2 G66H (Fab, V domains shown)
VH: B1 VH with P28A, G56H
VL: B1 VL
notes: Fab
B19: Ab1 Fab variant H2 G66N (Fab, V domains shown)
VH: B1 VH with P28A, G56N
VL: B1 VL
notes: Fab
B20: Ab1 Fab variant H2 G66E (Fab, V domains shown)
VH: B1 VH with P28A, G56E
VL: B1 VL
notes: Fab
B21: Ab1 Fab variant H2 G67K (Fab, V domains shown)
VH: B1 VH with P28A, G57K
VL: B1 VL
notes: Fab
B22: Ab1 Fab variant L1 A25P (Fab, V domains shown)
VH: B1 VH with P28A
VL: B1 VL with A25P
notes: Fab
B23: Ab1 Fab variant H2 G67Y (Fab, V domains shown)
VH: B1 VH with P28A, G57Y
VL: B1 VL
notes: Fab
B24: Ab1 Fab variant H1 Y29G (Fab, V domains shown)
VH: B1 VH with Y27G, P28A
VL: B1 VL
notes: Fab
B25: Ab1 Fab variant H1 A33M (Fab, V domains shown)
VH: B1 VH with P28A, A31M
VL: B1 VL
notes: Fab
B26: Ab1 Fab variant H1 Y39F (Fab, V domains shown)
VH: B1 VH with P28A, Y32F
VL: B1 VL
notes: Fab
B27: Ab1 Fab variant H2 Y70V (Fab, V domains shown)
VH: B1 VH with P28A, Y60V
VL: B1 VL
notes: Fab
B28: Ab1 Fab variant L1 K29E (Fab, V domains shown)
VH: B1 VH with P28A
VL: B1 VL with K27E
notes: Fab
B29: Ab1 Fab variant H2 N71S (Fab, V domains shown)
VH: B1 VH with P28A, N61S
VL: B1 VL
notes: Fab
B30: Ab1 Fab variant H2 S69E (Fab, V domains shown)
VH: B1 VH with P28A, S59E
VL: B1 VL
notes: Fab
B31: Ab1 Fab variant H2 F58I (Fab, V domains shown)
VH: B1 VH with P28A, F51I
VL: B1 VL
notes: Fab
B32: Ab1 Fab variant H2 S68T (Fab, V domains shown)
VH: B1 VH with P28A, S58T
VL: B1 VL
notes: Fab
B33: Ab1 Fab variant L1 S30H (Fab, V domains shown)
VH: B1 VH with P28A
VL: B1 VL with S28H
notes: Fab
B34: Ab1 Fab variant H1 A30T (Fab, V domains shown)
VH: B1 VH with P28T
VL: B1 VL
notes: Fab
B35: Ab1 Fab variant H2 N71A (Fab, V domains shown)
VH: B1 VH with P28A, N61A
VL: B1 VL
notes: Fab
B36: Ab1 Fab variant H2 S69K (Fab, V domains shown)
VH: B1 VH with P28A, S59K
VL: B1 VL
notes: Fab
B37: Ab1 Fab variant H1 G27N (Fab, V domains shown)
VH: B1 VH with G26N, P28A
VL: B1 VL
notes: Fab
B38: Ab1 Fab variant H2 G67P (Fab, V domains shown)
VH: B1 VH with P28A, G57P
VL: B1 VL
notes: Fab
B39: Ab1 Fab variant H2 F58V (Fab, V domains shown)
VH: B1 VH with P28A, F51V
VL: B1 VL
notes: Fab
B40: Ab1 Fab variant L1 L41M (Fab, V domains shown)
VH: B1 VH with P28A
VL: B1 VL with L33M
notes: Fab
B41: Ab1 Fab variant H2 S69V (Fab, V domains shown)
VH: B1 VH with P28A, S59V
VL: B1 VL
notes: Fab
B42: Ab1 Fab variant L1 K29S (Fab, V domains shown)
VH: B1 VH with P28A
VL: B1 VL with K27S
notes: Fab
B43: Ab1 Fab variant L1 L41V (Fab, V domains shown)
VH: B1 VH with P28A
VL: B1 VL with L33V
notes: Fab
B44: Ab1 Fab variant L1 S30A (Fab, V domains shown)
VH: B1 VH with P28A
VL: B1 VL with S28A
notes: Fab

These binders were tested against T1, recombinant human ROR1 extracellular domain (human, UniProt Q01973 30-406) (assay: ELISA, soluble Fab on coated huROR1-ECD).
T1 construct: biotinylated for the filter lifts; also called huROR1-ECD; human ROR1-ECD
Description: The previously described filter lift assay provides a visual, qualitative assessment of antigen binding (Example 1). In order to assess the ROR1 binding activity of Ab1 Fab in a more quantitative fashion, an ELISA assay was developed. A 96-well Costar-3366 plate was coated with 50 μL/well of 1 μg/mL human ROR1-ECD (ACROBiosystems, cat. #RO1-H522y) in PBS overnight at 4° C. The plate was rinsed once with PBS-T and blocked with 100 μL/well of 5% M-P for 1 h at 25° C. Fab samples were serially diluted 3-fold using 5% M-P and 50 μL/well was incubated for 1 h at 25° C. The plate was washed three times with PBS-T and 50 μL/well anti-human kappa, and HRP conjugate (Southern Biotech, cat. #2060-05) diluted 10,000-fold in 5% M-P was added for 1 h at 25° C. In certain assays (extended wash format), the plate was placed in large volumes (up to 1 L) of PBS-T and incubated, with mixing, for 2-5 h prior to the addition of anti-human kappa, HRP conjugate. The plate was washed three times with PBS-T, and developed with 50 μL/well 1-Step Ultra TMB-ELISA (Thermo Scientific, cat. #34028). The reaction was terminated by the addition of 2 N H2504 and the A450 was determined using a Spectramax plate reader.

T1 sequence (Q01973 30-406 limits assumed): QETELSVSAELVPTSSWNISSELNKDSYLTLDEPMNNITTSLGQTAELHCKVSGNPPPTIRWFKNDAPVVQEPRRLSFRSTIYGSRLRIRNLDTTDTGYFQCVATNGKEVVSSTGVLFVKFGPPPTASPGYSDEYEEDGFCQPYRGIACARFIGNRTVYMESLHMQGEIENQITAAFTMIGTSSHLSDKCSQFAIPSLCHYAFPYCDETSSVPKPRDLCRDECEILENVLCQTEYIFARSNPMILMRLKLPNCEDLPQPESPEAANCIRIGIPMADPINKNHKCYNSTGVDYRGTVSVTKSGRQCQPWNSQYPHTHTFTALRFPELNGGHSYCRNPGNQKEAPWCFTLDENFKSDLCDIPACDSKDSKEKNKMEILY

| Kd [nM] | Binder |
| --- | --- |
| 12 | B1 |
| 18 | B2 |
| 11 | B3 |
| 3.3 | B4 |
| 1.7 | B5 |
| 8.3 | B6 |
| 1.5 | B7 |
| < 1 | B8 |
| 1.7 | B9 |
| 1.2 | B10 |
| 5.8 | B11 |
| 1.8 | B12 |
| 2.2 | B13 |
| 4.9 | B14 |
| 2.8 | B15 |
| 1.1 | B16 |
| 40 | B17 |
| 1.4 | B18 |
| 2.2 | B19 |
| 0.9 | B20 |
| 2.3 | B21 |
| 0.7 | B22 |

| Kd [nM] | Binder |
| --- | --- |
| 6.3 | B23 |
| 7.1 | B24 |
| 15 | B25 |
| 5.7 | B26 |
| 1.5 | B27 |
| 1.2 | B28 |
| 1.2 | B29 |
| 1.2 | B30 |
| 1.8 | B31 |
| 6.4 | B32 |
| 1.4 | B33 |
| 16 | B34 |
| 1.3 | B35 |
| 46 | B36 |
| 8.4 | B37 |
| 0.6 | B38 |
| 0.9 | B39 |
| 1.3 | B40 |
| 1 | B41 |
| 0.9 | B42 |
| 1.1 | B43 |
| 1.5 | B44 |
